Earlier results as cited in paper PMC6353226.

Legend:
[1] = molecular target: IGF1R pY1165 (Homo sapiens) (UniProt P08069)
[2] = molecular target: IGF1R pY1161 (Homo sapiens) (UniProt P08069)

**Q.** What does the source list for YES1 SH2 (from UniProt P07947)?
**A.** Kd [1]: 900 nM; Kd [2]: 900 nM
